# From PMC4510971 (2015)
# B1: UBN1(92–175) [human] / H3.3/H4 [human | X. laevis] (parent complex)
# chain 1: NDEEKERHKVEALARKFEEKYGGKKRRKDRIQDLIDMGYGYDESDSFIDNSEAYDELVPASLTTKYGGFYINSGTLQFRQASES
# chain 2: not shown
# chain 3: not shown
# Variants of: B1
# Assay: fluorescence polarization competition binding; 10 nM FITC-UBN1(127–148), 6.5 μM H3.3/H4; 20 mM HEPES pH 7.5, 750 mM NaCl, 1 mM TCEP; parent: 1.66e+04 nM
row,Variant,IC50
1,chain 1 E52A,29.3 µM
2,chain 1 A53I,16.3 µM
3,chain 1 D36A,21.1 µM
4,chain 1 I31A,16.9 µM
5,chain 1 D33A,19.6 µM
6,chain 1 D55A,23 µM
7,chain 1 E56A,22.9 µM
8,chain 1 G38A,67.8 µM
9,chain 1 G40A,19.9 µM

# Second part, the variant after the results:
row,IC50,Variant
1,15.1 µM,chain 1 L34A
2,22.6 µM,chain 1 M37A
3,16.2 µM,chain 1 S46A
4,14.4 µM,chain 1 Y39A
5,16.4 µM,chain 1 Y54A
6,13.8 µM,chain 1 Q32A
7,13.8 µM,chain 1 I35A
8,19.6 µM,chain 1 L57A
